B1: 3xHA-D2R^GFP2 (human D2 dopamine receptor, wild type) [human] / human adenosine receptor fused to Renilla luciferase (A2AR^Rluc) [human] (parent)
chain 1: MPIMGSSVYITVELAIAVLAILGNVLVCWAVWLNSNLQNVTNYFVVSLAAADIAVGVLAIPFAITISTGFCAACHGCLFIACFVLVLTQSSIFSLLAIAIDRYIAIRIPLRYNGLVTGTRAKGIIAICWVLSFAIGLTPMLGWNNCGQPKEGKNHSQGCGEGQVACLFEDVVPMNYMVYFNFFACVLVPLLLMLGVYLRIFLAARRQLKQMESQPLPGERARSTLQKEVHAAKSLAIIVGLFALCWLPLHIINCFTFFCPDCSHAPLWLMYLAIVLSHTNSVVNPFIYAYRIREFRQTFRKIIRSHVLRQQEPFKAAGTSARVLAAHGSDGEQVSLRLNGHPPGVWANGSAPHPERRPNGYALGLVSGGSAQESQGNTGLPDVELLSHELKGVCPEPPGLDDPLAQDGAGVS
chain 2: MDPLNLSWYDDDLERQNWSRPFNGSDGKADRPHYNYYATLLTLLIAVIVFGNVLVCMAVSREKALQTTTNYLIVSLAVADLLVATLVMPWVVYLEVVGEWKFSRIHCDIFVTLDVMMCTASILNLCAISIDRYTAVAMPMLYNTRYSSKRRVTVMISIVWVLSFTISCPLLFGLNNADQNECIIANPAFVVYSSIVSFYVPFIVTLLVYIKIYIVLRRRRKRVNTKRSSRAFRAHLRAPLKGNCTHPEDMKLCTVIMKSNGSFPVNRRRVEAARRAQELEMEMLSSTSPPERTRYSPIPPSHHQLTLPDPSHHGLHSTPDSPAKPEKNGHAKDHPKIAKIFEIQTMPNGKTRTSLKTMSRRKLSQQKEKKATQMLAIVLGVFIICWLPFFITHILNIHCDCNIPPVLYSAFTWLGYVNSAVNPIIYTTFNIEFRKAFLKILHC

Variants of B1 are the subject of the assay. Nature of the assay: BRET2 saturation assay. The following applies: with human A2A adenosine receptor fused to Renilla luciferase (A2AR^Rluc) [human]; height of the fitted saturation curve read at x = 6 AU (GFP2-GFP2_0)/Rluc; co-expressed in cells; DeepBlueC substrate, 10 min incubation; read off a plot. (In general: BRET reads energy transfer from a luciferase to a nearby fluorophore.)
Regarding chain 2 MDPLNLSWYDDDLERQNWSRPFNGSDGKADRPHYNYYATLLTLLIAVIVFGNVLVCMAVSREKALQTTTNYLIVSLAVADLLVATLVMPWVVYLEVVGEWKFSRIHCDIFVTLDVMMCTASILNLCAISIDRYTAVAMPMLYNTRYSSKRRVTVMISIVWVLSFTISCPLLFGLNNADQNECIIANPAFVVASSIVSFYVPFIVTLLVYIKIYIVLRRRRKRVNTKRSSRAFRAHLRAPLKGNCTHPEDMKLCTVIMKSNGSFPVNRRRVEAARRAQELEMEMLSSTSPPERTRYSPIPPSHHQLTLPDPSHHGLHSTPDSPAKPEKNGHAKDHPKIAKIFEIQTMPNGKTRTSLKTMSRRKLSQQKEKKATQMLAIVLGVFIICWLPFFITHILNIHCDCNIPPVLYSAFTWLGYVNSAVNPIIYTTFNIEFRKAFLKILHC [chain 2 Y192A], the response (netBRET2 ratio) amounted to 0.056.
chain 2 MDPLNLSWYDDDLERQNWSRPFNGSDGKADRPHYNYYATLLTLLIAVIVFGNVLVCMAVSREKALQTTTNYLIVSLAVADLLVATLVMPWVVYLEVVGEWKFSRIHCDIFVTLDVMMCTASILNLCAISIDRYTAVAMPMLYNTRYSSKRRVTVMISIVWVLSFTISCPLLFGLNNADQNECIIANPAFVVYSSIVSFYVPFIVTLAVYIAIYIVLRRRRKRVNTKRSSRAFRAHLRAPLKGNCTHPEDMKLCTVIMKSNGSFPVNRRRVEAARRAQELEMEMLSSTSPPERTRYSPIPPSHHQLTLPDPSHHGLHSTPDSPAKPEKNGHAKDHPKIAKIFEIQTMPNGKTRTSLKTMSRRKLSQQKEKKATQMLAIVLGVFIICWLPFFITHILNIHCDCNIPPVLYSAFTWLGYVNSAVNPIIYTTFNIEFRKAFLKILHC [chain 2 L207A K211A]: the response (netBRET2 ratio) amounted to 0.048.

(Values after PMC6125358, “Mapping the Interface of a GPCR Dimer: A Structural Model of the A2A Adenosine and D2 Dopamine Receptor Heteromer” (Frontiers in Pharmacology, 2018).)
